Test results published in PMC6281676 (Scientific Reports, 2018).

Experiments:
[1] = Appearance of mixed solution of peptide drug and penetratin; format: physicochemical; details: peptide drug 2.5 mg/mL plus L- or D-penetratin 2.0 mM in PBS pH 6.0 with 0.001% methylcellulose; visual
[2] = 15 min after 30th intranasal administration of exendin-4 1 mg/mL, L-penetratin 2 mM and insulin 8 IU/mL (1 IU/kg)
Procedure: (§1) Every morning at 10 AM, mice were anesthetized by an i.p. injection of sodium pentobarbital (50 mg/kg), and restrained in a supine position. […] The untreated control SAMP8 and SAMR1 received intranasal administration of only the vehicle (PBS pH 6.0). After each administration, mice were kept in a supine position for 15 min and then returned to their cages.

[3] = up to 60 min after 29th intranasal administration of exendin-4 and insulin with L-penetratin; tail vein, glucose meter
Procedure: as §1
Blood was obtained from the tail vein before and 15, 30, and 60 min after administration, and the blood glucose concentration was measured using a glucose meter (One Touch Ultra View, Johnson & Johnson K.K., Tokyo, Japan).

[4] = tested on: hippocampal neuronal cells; test: Immunohistological staining of brain specimens with anti-NeuN antibody (neuronal cell counts); format: in vivo, SAMP8 mice; details: after 30th intranasal administration of exendin-4 ± L-penetratin ± insulin; 38 weeks of age; n = 4–8
Procedure: At 15 min after administration, blood samples were taken from the left jugular vein. Immediately after blood withdrawal, the abdominal cavity was opened, and the intravascular content in the brain was flushed by perfusion of ice-cold PBS (pH 7.4) into the left ventricle of the heart at 5.5 mL/min for 5 min using a peristaltic pump (ATTO Corp.). Right afterwards, the brain was fixed by perfusion of ice-cold 4% PFA into the brain at 5.5 mL/min for 10 min. Subsequently, the whole brain was carefully isolated and washed with ice-cold PBS (pH 7.4) and weighed after removal of the water content.
The right side of the brain obtained as described above was immersed in 4% PFA for 24 h and then moved to ice-cold PBS (pH 7.4) and stored at 4 °C. After removing the PBS, the brain was trimmed coronally to obtain 3-mm slices at the position of Bregma −1.5 mm. […]
A thin slice at Bregma −2.0 mm was obtained and mounted on a glass slide, deparaffinized, and immersed in citrate buffer for 40 min in a water bath at 98 °C to activate the antigen. […] The stained brain tissue was observed by microscopy (Olympus BX51 and DP71), and the NeuN-positive cell numbers in the hippocampus were analyzed using WinROOF (Mitani Corp., Tokyo, Japan). […]

Substance | appearance of solution after mixing [1] | insulin level in plasma ([2]; ELISA, mean ± SEM) [μU/mL] | brain concentration of insulin ([2]; human insulin ultrasensitive ELISA) | blood glucose level [3] [mg/dL] | NeuN-positive hippocampal neuronal cell counts [4]
HAEGTFTSDVSSYLEGQAAKEFIAWLVKGR-NH2 [GLP-1, glucagon-like peptide-1, incretin peptide, synthesized by Sigma-Genosys] | clear |  |  |  | 
insulin: Recombinant human insulin (27.5 IU/mg), Wako |  | 41.1 ± 11.8 | less than the lower detection limit | > 70 | no proliferation effect
